Target: human Type 1 IGF receptor (human) (UniProt P08069)
Assay: competitive displacement of 125I-Tyr31-IGF-I; FLAG-tagged IGF-1R captured on anti-FLAG plate

Sequence of human Type 1 IGF receptor (human) (P08069 31-1367 limits assumed): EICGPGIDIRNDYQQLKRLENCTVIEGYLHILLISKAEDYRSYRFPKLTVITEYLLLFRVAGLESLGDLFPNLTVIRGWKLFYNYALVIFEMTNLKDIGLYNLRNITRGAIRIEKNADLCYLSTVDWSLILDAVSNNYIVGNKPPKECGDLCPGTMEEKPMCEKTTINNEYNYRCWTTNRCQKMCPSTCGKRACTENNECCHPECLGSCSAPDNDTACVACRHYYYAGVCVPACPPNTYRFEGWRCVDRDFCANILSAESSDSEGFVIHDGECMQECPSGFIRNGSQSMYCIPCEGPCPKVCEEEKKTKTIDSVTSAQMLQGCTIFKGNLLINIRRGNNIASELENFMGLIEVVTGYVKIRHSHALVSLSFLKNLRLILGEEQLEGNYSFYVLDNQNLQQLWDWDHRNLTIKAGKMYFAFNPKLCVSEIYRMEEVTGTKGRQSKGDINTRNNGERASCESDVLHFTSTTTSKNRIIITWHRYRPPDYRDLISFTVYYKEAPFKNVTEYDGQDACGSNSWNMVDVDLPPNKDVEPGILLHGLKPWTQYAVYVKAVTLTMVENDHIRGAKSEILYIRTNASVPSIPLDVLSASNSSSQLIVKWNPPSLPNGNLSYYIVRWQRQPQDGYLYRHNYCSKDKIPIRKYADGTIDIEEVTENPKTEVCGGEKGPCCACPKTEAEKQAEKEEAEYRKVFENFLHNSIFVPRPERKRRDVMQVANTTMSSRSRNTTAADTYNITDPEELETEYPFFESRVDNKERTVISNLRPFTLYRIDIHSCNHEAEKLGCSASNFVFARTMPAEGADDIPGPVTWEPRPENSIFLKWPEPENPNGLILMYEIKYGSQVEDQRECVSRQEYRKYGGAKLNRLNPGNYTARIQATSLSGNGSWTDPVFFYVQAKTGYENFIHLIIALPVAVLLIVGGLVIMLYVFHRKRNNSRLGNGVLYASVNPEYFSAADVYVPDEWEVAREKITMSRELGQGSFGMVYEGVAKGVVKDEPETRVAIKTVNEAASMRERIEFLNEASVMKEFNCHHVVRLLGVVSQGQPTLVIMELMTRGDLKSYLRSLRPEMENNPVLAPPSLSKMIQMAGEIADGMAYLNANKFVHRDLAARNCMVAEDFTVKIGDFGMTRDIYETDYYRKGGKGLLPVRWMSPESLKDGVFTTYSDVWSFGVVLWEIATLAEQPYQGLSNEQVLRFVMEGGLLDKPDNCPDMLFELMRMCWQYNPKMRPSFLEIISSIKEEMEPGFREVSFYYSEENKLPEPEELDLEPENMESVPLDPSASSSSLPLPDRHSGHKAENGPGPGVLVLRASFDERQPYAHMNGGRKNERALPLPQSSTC

relative affinity (percent (of IGF-I for IGF-1R)): 0.27
Substance: lispro-insulin (ligand; other documents disagree on this pair)
